Data published in US20230348616A1 (MIE UNIVERSITY, published 2023).
Read-outs that look alike come from different tables or passages of the source.

Columns and labels:
[1] = target: T1, HLA-A2 / homologous peptide DOLPP1 complex on T2 cells (human); assay: flow cytometry, peptide-pulsed T2 cells
T1 construct: whole, on cells; also called T2 cells supplemented with homologous peptide DOLPP1

[2] = target: T2, HLA-A2 / homologous peptide IL20RB complex on T2 cells (human); assay: flow cytometry, peptide-pulsed T2 cells
T2 construct: whole, on cells; also called T2 cells supplemented with homologous peptide IL20RB

[3] = target: T3, HLA-A2 / homologous peptide PRKD2 complex on T2 cells (human); assay: flow cytometry, peptide-pulsed T2 cells
T3 construct: whole, on cells; also called T2 cells supplemented with homologous peptide PRKD2

[4] = target: T4, HLA-A2 / homologous peptide CD163 complex on T2 cells (human); assay: flow cytometry, peptide-pulsed T2 cells
T4 construct: whole, on cells; also called T2 cells supplemented with homologous peptide CD163

[5] = target: T5, HLA-A2 / homologous peptide P2RY8 complex on T2 cells (human); assay: flow cytometry, peptide-pulsed T2 cells
T5 construct: whole, on cells; also called T2 cells supplemented with homologous peptide P2RY8

gp100 [6] = target: T6, gp100 (human); assay: flow cytometry on peptide-pulsed T2 cells, scFv 100 nM;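 for result: scFv binding read as gMFI and normalized to the level of HLA/peptide complex displayed on T2 cells, with homologous 9-mer peptides used to probe specificity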
T6 construct: cell surface;cell surface complex; also called HLA-A2 / gp100 peptide complex on T2 cells
Experimental: (§1) The resultant was washed two times in the AIM-V medium containing 20% FBS, the concentration thereof was adjusted to an adequate level with PBS containing 5% FBS, the LIVE/DEAD Fixable Dead Cell Stain Kit (Thermo Fisher Scientific) was added thereto, and the resultant was allowed to stand at 4° C. for 30 minutes. The cells were washed 2 times in PBS containing 5% FBS, the washed cells were divided into two groups, the cells in PBS containing 5% FBS were seeded on a 96-well U-bottom microplate at 10⁵ cells/well, and the plate was subjected to centrifugation, followed by removal of the supernatant. Anti-HLA/NY-ESO scFv diluted to 100 nM with PBS containing 5% FBS was added at 25 μl/well to one of the divided cells, and the resultant was allowed to stand at 4° C. for 30 minutes. The cells were washed 2 times in PBS containing 5% FBS, Penta-His Alexa Fluor488 (QIAGEN) diluted in PBS containing 5% FBS was added at 25 μl/well, and the resultant was allowed to stand at 4° C. for 30 minutes. The cells were washed 2 times in PBS containing 5% FBS, Anti-mouse-IgG Alexa Fluor488 (Thermo Fisher Scientific) diluted in PBS containing 5% FBS was added at 25 μl/well, and the resultant was allowed to stand at 4° C. for 30 minutes. The cells were washed 2 times in PBS containing 5% FBS, immobilized with Mildform 10 N (FUJIFILM Wako Pure Chemical Corporation) overnight, and resuspended in PBS containing 5% FBS. […] The cells were washed 2 times in PBS containing 5% FBS, immobilized with Mildform 10 N (FUJIFILM Wako Pure Chemical Corporation) overnight, and resuspended in PBS containing 5% FBS. The cell suspensions were subjected to detection using a flow cytometer (CantoII, Becton Dickinson). […] The standardized gMFI indicating the binding affinity of each scFv standardized with the amount of the HLA/peptide complex on the T2 cells was determined in accordance with the following equation.

[7] = target: T7, HLA-A2/NY-ESO peptide complex presented on cells (human); assay: as above
T7 construct: whole, on cells; also called HLA/NY-ESO; T2 cells supplemented with the NY-ESO peptide
Experimental: as §1

gp100 [8] = target: T6, gp100; assay: as above; remark: listed apart in the source
Experimental: (§2) The cells were washed 2 times in PBS containing 5% FBS, immobilized with Mildform 10 N (FUJIFILM Wako Pure Chemical Corporation) overnight, and resuspended in PBS containing 5% FBS. The cell suspensions were subjected to detection using a flow cytometer (CantoII, Becton Dickinson). […] The standardized gMFI indicating the binding affinity of each scFv standardized with the amount of the HLA/peptide complex on the T2 cells was determined in accordance with the following equation.
(§3) The 9-mer peptide shown in FIG. 2A was selected as a homologous peptide for evaluation of binding specificity of anti-HLA/NY-ESO scFv. […] The standardized gMFI indicating the binding affinity of each scFv standardized with the amount of the HLA/peptide complex on the T2 cells was determined in accordance with the following equation.

[9] = target: T7, HLA-A2/NY-ESO peptide complex presented …; assay: as above; remark: listed apart in the source
Experimental: as §2, §3

[10] = target: T1, HLA-A2 / homologous peptide DOLPP1 …; assay: as above
Experimental: as §2, §3

[11] = target: T2, HLA-A2 / homologous peptide IL20RB …; assay: as above
Experimental: as §2, §3

[12] = target: T3, HLA-A2 / homologous peptide PRKD2 …; assay: as above
Experimental: as §2, §3

[13] = target: T4, HLA-A2 / homologous peptide CD163 …; assay: as above
Experimental: as §2, §3

[14] = target: T5, HLA-A2 / homologous peptide P2RY8 …; assay: as above
Experimental: as §2, §3

[15] = target: T8, HLA-A*0201/β2-microglobulin/NY-ESO peptide complex (human, biotinylated with E. coli biotin ligase at the added recognition sequence (biotinylated form used in the ELISA)); assay: SPR (Biacore T200), scFv captured by anti-His antibody, HLA/NY-ESO as analyte, single cycle kinetics
T8 construct: also called HLA/NY-ESO; HLA-A2/NY-ESO
Experimental: With the use of Biacore T200, anti-HLA/NY-ESO scFv was captured as a ligand by the immobilized anti-His antibody, and the antigen was assayed as an analyte. As the antigen, HLA/NY-ESO prepared in 1)-1 was used. The anti-His antibody (His Capture kit, GE Healthcare) was immobilized on Sensor Chip CM5 (GE Healthcare) in accordance with the instructions of the kit. The anti-HLA/NY-ESO scFv constructs diluted to 0.5 μg/ml in HBS-EP+ (GE Healthcare) to be evaluated were brought into contact therewith at 10 μl/min for 60 seconds for immobilization. Thereafter, the samples were added to the HLA/NY-ESO analytes diluted to various levels with HBS-EP+ at a flow rate of 30 μl/min for 120 seconds and dissociation was assayed for 600 seconds.

B1: NYA-0001 (scFv)
scFv: GEVQLVESGGGVVQPGRSLTPSCSASGFSIRSYDIHWVRQAPGKGLEWVATISYDGSQKYFADSVKGRFTIFRDESENMVYLQMSGLRVEDTAVYHCARGSSGHYEAFDIWGQGTMVTVSSGGGGSGGGGSGGGGSQSVLTQPPSVSAAPGQKVTISCSGSSSNIGNNYVSWYQQLPGTAPKLLIYDNNKRPSGIPDRFSGSKSGTSATLGITGLQTGDEADYYCGTWDSSLSAPWVFGGGTKVTVLGAAAGAGGDYKDDDDKGAAAHHHHHH
notes: also called NYA-0001 tag adduct; NY-R119 expressed in a cultured mammalian cell
[1]
  binding result: no binding (tested: 100 nM)
[2]
  binding result: no binding (tested: 100 nM)
[3]
  binding result: no binding (tested: 100 nM)
[4]
  binding result: no binding (tested: 100 nM)
[5]
  binding result: no binding (tested: 100 nM)
gp100 [6]
  standardized gMFI: 0.43
[7]
  standardized gMFI: 5.75
gp100 [8]
  standardized gMFI: 0.31
[9]
  standardized gMFI: 5.12
[10]
  standardized gMFI: 0.37
[11]
  standardized gMFI: 0.42
[12]
  standardized gMFI: 0.33
[13]
  standardized gMFI: 0.48
[14]
  standardized gMFI: 0.73
[15]
  Kd: 33.8 nM

B2: NYA-1163 (scFv)
scFv: GEVQLVESGGGVVQPGRSLTPSCSASGFSIRSYDIHWVRLAPGKGLEWVATISYDGSQKYFADSVKGRFTIFRDESENMVYLQMSGLRVEDTAVYHCARGSSGHYEAFDIWGQGTMVTVSSGGGGSGGGGSGGGGSQSVLTQPPSVSAAPGQKVTISCSGSSSNIGNNYVSWYQQLPGTAPKLLIYDNNKRPSGIPDRFSGSKSGTSATLGITGLQTGDEADYYCGTWDSSLSAPWVFGGGTKVTVLGAAAGAGGDYKDDDDKGAAAHHHHHH
[1]
  binding result: no binding (tested: 100 nM)
[2]
  binding result: no binding (tested: 100 nM)
[3]
  binding result: no binding (tested: 100 nM)
[4]
  binding result: no binding (tested: 100 nM)
[5]
  binding result: no binding (tested: 100 nM)
gp100 [6]
  standardized gMFI: 0.44
[7]
  standardized gMFI: 3.67
gp100 [8]
  standardized gMFI: 0.3
[9]
  standardized gMFI: 4.21
[10]
  standardized gMFI: 0.36
[11]
  standardized gMFI: 0.41
[12]
  standardized gMFI: 0.31
[13]
  standardized gMFI: 0.46
[14]
  standardized gMFI: 0.69
[15]
  Kd: 13 nM

B3: NYA-2023 (scFv)
scFv: GEVQLVESGGGVVQPGRSLTPSCSASGFSIRSYDIHWVRQAPGKGLEWVATISYDGSQKYFADSVKGRFTIFRDESENMVYLQMSGLRVEDTAVYHCARGSSGHYEAFDIWGQGTMVTVSSGGGGSGGGGSGGGGSQSVLTQPPSVSAAPGQKVTISCSGSSSNIGNWYVSWYQQLPGTAPKLLIYDNNKRPSGIPDRFSGSKSGTSATLGITGLQTGDEADYYCGTWDSSLSAPWVFGGGTKVTVLGAAAGAGGDYKDDDDKGAAAHHHHHH
[1]
  binding result: no binding (tested: 100 nM)
[2]
  binding result: no binding (tested: 100 nM)
[3]
  binding result: no binding (tested: 100 nM)
[4]
  binding result: no binding (tested: 100 nM)
[5]
  binding result: no binding (tested: 100 nM)
gp100 [6]
  standardized gMFI: 0.4
[7]
  standardized gMFI: 8.85
gp100 [8]
  standardized gMFI: 0.3
[9]
  standardized gMFI: 10.1
[10]
  standardized gMFI: 0.42
[11]
  standardized gMFI: 0.42
[12]
  standardized gMFI: 0.42
[13]
  standardized gMFI: 0.48
[14]
  standardized gMFI: 0.7
[15]
  Kd: 2.4 nM

B4: NYA-1154 (scFv)
scFv: GEVQLVESGGGVVQPGRSLTPSCSASGFSIRSYDMHWVRQAPGKGLEWVATISYDGSQKYFADSVKGRFTIFRDESENMVYLQMSGLRVEDTAVYHCARGSSNHYEAFDIWGQGTMVTVSSGGGGSGGGGSGGGGSQSVLTQPPSVSAAPGQKVTISCSGSSSNIGNNYVSWYQRLPGTAPKLLIYDNNKRPSGIPDRFSGSKSGTSATLGITGLQTGDEADYYCGAWDSSLSAPWVFGGGTKVTVLGAAAGAGGDYKDDDDKGAAAHHHHHH
gp100 [6]
  standardized gMFI: 0.46
[7]
  standardized gMFI: 9.98
gp100 [8]
  standardized gMFI: 0.31
[9]
  standardized gMFI: 13.8
[10]
  binding result: no binding (tested: 100 nM)
  standardized gMFI: 0.46
[11]
  binding result: no binding (tested: 100 nM)
  standardized gMFI: 0.51
[12]
  standardized gMFI: 2.72
[13]
  binding result: no binding (tested: 100 nM)
  standardized gMFI: 0.54
[14]
  binding result: no binding (tested: 100 nM)
  standardized gMFI: 0.65

B5: NYA-2027 (scFv)
scFv: GEVQLVESGGGVVQPGRSLTPSCSASGFSIRSYDIHWVRQAPGKGLEWVATISYDGSQKYFADSVKGRFTIFRDESENMVYLQMSGLRVEDTAVYHCARGSSGHYEAFDIWGQGTMVTVSSGGGGSGGGGSGGGGSQSVLTQPPSVSAAPGQKVTISCSGSSSNIGNNYVSWYQQLPGTAPKLLIYDNNKRPSGIPDRFSGSKSGTSATLGITGLQTGDEADYYCGSWDSSLSAPWVFGGGTKVTVLGAAAGAGGDYKDDDDKGAAAHHHHHH
[1]
  binding result: no binding (tested: 100 nM)
[2]
  binding result: no binding (tested: 100 nM)
[3]
  binding result: no binding (tested: 100 nM)
[4]
  binding result: no binding (tested: 100 nM)
[5]
  binding result: no binding (tested: 100 nM)
gp100 [6]
  standardized gMFI: 0.41
[7]
  standardized gMFI: 5.75
gp100 [8]
  standardized gMFI: 0.31
[9]
  standardized gMFI: 7.25
[10]
  standardized gMFI: 0.39
[11]
  standardized gMFI: 0.42
[12]
  standardized gMFI: 0.32
[13]
  standardized gMFI: 0.51
[14]
  standardized gMFI: 0.7
[15]
  Kd: 11.2 nM

B6: NYA-1143 (scFv)
scFv: GEVQLVESGGGVVQPGRSLTPSCSASGFSIRSYDIHWVRLAPGKGLEWVATISYDGSQKYFADSVKGRFTIFRDESENMVYLQMSGLRVEDTAVYHCARGSSGHYEAFDIWGQGTMVTVSSGGGGSGGGGSGGGGSQSVLTQPPSVSAAPGQKVTISCSGSSSNIGNWYVSWYQQLPGTAPKLLIYDNNKRPSGIPDRFSGSKSGTSATLGITGLQTGDEADYYCGTWDSSLSAPWVFGGGTKVTVLGAAAGAGGDYKDDDDKGAAAHHHHHH
[1]
  binding result: no binding (tested: 100 nM)
[2]
  binding result: no binding (tested: 100 nM)
[3]
  binding result: no binding (tested: 100 nM)
[4]
  binding result: no binding (tested: 100 nM)
[5]
  binding result: no binding (tested: 100 nM)
gp100 [6]
  standardized gMFI: 0.41
[7]
  standardized gMFI: 12.9
gp100 [8]
  standardized gMFI: 0.3
[9]
  standardized gMFI: 13.4
[10]
  standardized gMFI: 0.37
[11]
  standardized gMFI: 0.42
[12]
  standardized gMFI: 0.32
[13]
  standardized gMFI: 0.46
[14]
  standardized gMFI: 0.69
[15]
  Kd: 1 nM

B7: NYC-0003 (scFv, not shown: small tags and cut ends)
scFv: EVQLLESGGGLVQPGGSLRLSCAASGFTFSTYQMSWVRQAPGKGLEWVSGIVSSGGSTAYADSVKGRFTISRDNSKNTLYLQMNSLRAEDTAVYYCAGELLPYYGMDVWGQGTTVTVSSGGGGSGGGGSGGGGSQSELTQPRSVSGSPGQSVTISCTGTSRDVGGYNYVSWYQQHPGKAPKLIIHDVIERSSGVPDRFSGSKSGNTASLTISGLQAEDEADYYCWSFAGSYYVFGTGTDVTVL
notes: also called 3M4E5 scFv; NYC-0003 tag adduct
gp100 [6]
  standardized gMFI: 0.39
[7]
  standardized gMFI: 3.74
gp100 [8]
  standardized gMFI: 0.32
[9]
  standardized gMFI: 5.22
[10]
  standardized gMFI: 0.38
[11]
  standardized gMFI: 0.43
[12]
  standardized gMFI: 1.53
[13]
  standardized gMFI: 1.08
[14]
  standardized gMFI: 2.01
[15]
  Kd: 8.1 nM

B8: NYC-0004 (scFv, not shown: small tags and cut ends)
scFv: EVQLLESGGGLVQPGGSLRLSCAASGFTFSTYQMSWVRQAPGKGLEWVSGIVSSGGSTAYADSVKGRFTISRDNSKNTLYLQMNSLRAEDTAVYYCAGELLPYYGMDVWGQGTTVTVSSGGGGSGGGGSGGGGSQSELTQPRSVSGSPGQSVTISCTGTERDVGGYNYVSWYQQHPGKAPKLIIHDVIERSSGVPDRFSGSKSGNTASLTISGLQAEDEADYYCWSFAGGYYVFGTGTDVTVL
notes: also called T1 scFv; NYC-0004 tag adduct
gp100 [6]
  standardized gMFI: 0.37
[7]
  standardized gMFI: 6.02
gp100 [8]
  standardized gMFI: 0.32
[9]
  standardized gMFI: 9.19
[10]
  standardized gMFI: 0.39
[11]
  standardized gMFI: 0.43
[12]
  standardized gMFI: 3.41
[13]
  standardized gMFI: 0.49
[14]
  standardized gMFI: 1.98
[15]
  Kd: 2.8 nM
